For this series, the target named is rPrP23-231 (full-length mature recombinant prion protein) (mouse, UniProt P04925 23-231). In words: fluorescence anisotropy.
Sequence of rPrP23-231 (full-length mature recombinant prion protein) (P04925 23-231): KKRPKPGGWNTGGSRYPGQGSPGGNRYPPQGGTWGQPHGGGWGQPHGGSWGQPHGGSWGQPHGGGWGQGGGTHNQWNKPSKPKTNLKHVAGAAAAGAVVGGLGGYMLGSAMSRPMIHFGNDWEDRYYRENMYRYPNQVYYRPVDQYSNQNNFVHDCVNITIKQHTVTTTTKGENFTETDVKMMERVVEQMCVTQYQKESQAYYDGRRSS

For AAACAUGGGUUCCCAUGU (structured_RNA) [opRNA], the binding result is reported as “binds”.
